Data taken from paper PMC4646227, “Plasticity in PYD assembly revealed by cryo-EM structure of the PYD filament of AIM2” (Cell Discovery, 2015).
One block for each molecule: values may come before it.

How the values were obtained:
[1] = target: ASC PYD (M1-Q105, S106C), fluorophore-labelled, MBP removed by TEV (UniProt Q9ULZ3); assay: fluorescence polarisation; apparent; Alexa Fluor 488-labelled MBP-ASC PYD, same procedure, mCherry-NLRP6 PYD added as nucleator
[2] = target: the molecule itself; assay: cryo-EM structure; helical reconstruction of His-GFP-AIM2 PYD filaments; sample in 20 mM HEPES pH 8.0, 150 mM NaCl, 2 mM dithiothreitol
[3] = target: T1, ASC PYD (M1-Q105, S106C), fluorophore-labelled, MBP removed by TEV (UniProt Q9ULZ3 1-106, S106C, Alexa Fluor 568 on the engineered C-terminal Cys (maleimide); Alexa Fluor 488 instead in the experiment with mCherry-NLRP6^PYD); assay: fluorescence polarisation; apparent; Alexa568-labelled MBP-ASC PYD, polymerisation started by TEV removal of MBP; initial rates of ASC PYD filament formation plotted against concentrations of added GFP-AIM2 PYD seeds; conditions: both partners purified
T1 construct: Apoptosis-associated speck-like protein containing a CARD (ASC), Pyrin domain, M1-Q105 followed by an engineered Cys (S106C); also called labeled MBP-ASC^PYD (before cleavage); source: E. coli BL21(DE3), purified (Ni-NTA, SEC) as monomeric MBP fusion, labelled, MBP removed by TEV in the assay
T1 sequence (Q9ULZ3 1-106 S106C): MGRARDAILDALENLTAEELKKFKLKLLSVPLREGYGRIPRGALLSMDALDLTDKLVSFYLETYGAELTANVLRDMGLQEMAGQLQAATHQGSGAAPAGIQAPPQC

ASC PYD (M1-Q105, S106C), fluorophore-labelled, MBP removed by TEV (UniProt Q9ULZ3), sequence (Q9ULZ3 1-106 S106C): as above

Kd [1]: 0.09 µM
Molecule: mCherry-tagged NLRP6 PYD (domain or fragment)

Kd [3]: ~0.21 µM
B1: His-GFP-tagged AIM2 PYD (M1-P100) (domain or fragment, human, UniProt O14862 1-100, looked up)
chain: MESKYKEILLLTGLDNITDEELDRFKFFLSDEFNIATGKLHTANRIQVATLMIQNAGAVSAVMKTIRIFQKLNYMLLAKRLQEEKEKVDKQYKSVTKPKP
notes: Absent in melanoma 2 (AIM2), human, Pyrin domain, residues M1-P100; Non-cleavable His-GFP tag from a pET28a backbone; A two-residue linker from the BamHI site joins GFP and AIM2 PYD; The protein forms filaments; also called GFP-AIM2^PYD; His-GFP-AIM2^PYD; source: E. coli BL21(DE3), purified (Ni-NTA, SEC; void fractions); not shown: His, N-terminal, kept; GFP (monomeric, M1-T230, A206K), …
binding result [2]: binds
